Our source for the ratio and percent protein bound values is patent US20170137467A1.

For assay [1], the target named is T1, BC2T K4E (human).
T1 sequence (peptide, N-terminal acetyl, C-terminal amide): PDREAAVSHWQQ
Briefly: library pulldown, LC-MS of supernatant; ratio vs GFP-Nb control (0=captured, 1=not captured).

Assay [2] addresses mCherry tagged with the improved BC2T variations. Briefly: capture on the BC2 nanotrap, SDS-PAGE and Coomassie, FIG. 19a.
The target in assay [3] is T2, BC2T Q11P.
T2 sequence (peptide, N-terminal acetyl; C-terminal amide): PDRKAAVSHWPQ
Briefly: positional peptide library pulldown on immobilised Nb, LC-MS of supernatant; signal ratio to control GFP-Nb (1 = not captured, near 0 = captured).

Assay [4] has as its target T3, BC2T S8D.
T3 sequence (peptide, N-terminal acetyl; C-terminal amide): PDRKAAVDHWQQ
The description is as above.

Assay [5] concerns the target T4, BC2T S8K.
T4 sequence (peptide, N-terminal acetyl; C-terminal amide): PDRKAAVKHWQQ
Described as above.

In assay [6] the target is T5, BC2T R3Q.
T5 sequence (peptide, N-terminal acetyl; C-terminal amide): PDQKAAVSHWQQ
Described as above.

Assay [7] has as its target T6, BC2T R3S.
T6 sequence (peptide, N-terminal acetyl; C-terminal amide): PDSKAAVSHWQQ
Described as above.

Substitutions are numbered along the chain they refer to.

B1: BC2-NbR106S (VHH, not shown: small tags and cut ends)
VHH: QVQLVESGGGLVQPGGSLTLSCTASGFTLDHYDIGWFRQAPGKEREGVSCINNSDDDTYYADSVKGRFTIFMDNAKDTVYLQMNSLKPEDTAIYYCAEARGCKRGSYEYDFWGQGTQVTVSS
For the molecule B1, the ratio in assay [1] came to 0.9.

B2: BC2 nanobody (VHH, not shown: small tags and cut ends)
VHH: B1 VHH with S106R
On to B2, for which the percent protein bound in assay [2] is less than 100%. The figures for the ratio in assay [3], in assay [4] and in assay [5] were 0.6, 0.8 and 0.8, respectively.

B3: BC2-NbR106E (VHH)
VHH: B1 VHH with S106E
For B3, the ratio in assay [6] and in assay [7] was 0.8 in each case.
